Experimental data published in the supplement of paper PMC9170038.

System: MS2 coat protein
Test: apparent KD of MS2 coat protein; designed switch direction (-1 OFF switch, 1 ON switch): -1; higher = weaker reporter binding
Summary of the method: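 Transcription of designed RNA switches on Illumina chips was done by stalled E. coli RNA polymerase. SNAP-549-labelled MS2 coat protein was then titrated in doubling steps from 0.7 or 1.5 nM to 3 µM, with steps of 0.8–1.5 h at the lowest and 10–20 min at the highest concentration. The per-design median over clusters of curve-fitted normalised fluorescence is reported as apparent KD.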

[1] = Eterna round: R95, input ligand: FMN 200 uM
[2] = Eterna round: R95, input ligand: microRNA oligo, concentration not stated
[3] = Eterna round: R95, input ligand: none
[4] = input ligand: microRNA oligo, concentration not stated

Row | Sequence | apparent KD of MS2 coat protein [1] | apparent KD of MS2 coat protein [2] | apparent KD of MS2 coat protein [3] | apparent KD of MS2 coat protein (input ligand: FMN 200 uM) | apparent KD of MS2 coat protein (input ligand: none) | apparent KD of MS2 coat protein [4]
1 | UUUAAUUUUUUUUUUUUACAAGCUUUUUGCUCGUCUUAUACAUGAGGAUCACCCAUGUGGGUGAGAGAUAAAUUAUC [JMF 14] (puzzle: Sensor v3, turn-off variant 2) | 53.2 nM | 17 nM | 64.2 nM |  |  | 
2 | UUUAGUUUAGGAUAUGUAGAUUUUAACAUGAGGAUCACCCAUGUAGAUCCUGAAUUAACUACAGAAGGGAGCAUUU [Mod of Brourd 15 - Jieux - Exclusion 5] (Eterna round: R97, puzzle: Exclusion 5) |  |  |  | 70.5 nM | 68.2 nM | 
3 | AAGAGAGCAGGAUAUACAUGAGGAUCACCCAUGUGGGAAAUAAGUGGCGUACCACAAAGUAGAAGGGCUUUCCA [jl-ex3-4.80 Eli automod] (Eterna round: R97, puzzle: Exclusion 3) |  |  |  | 310 nM | 86.2 nM | 
4 | GUAGCUUCGGCUACUACAAGCUUUUUGCUCGUCUUAUUAACAUGAGGAUCACCCAUGUUAAUGAGACCUCAUGUAUU [Sensor v3 - turn-off variant 2 - 6] (puzzle: Sensor v3, turn-off variant 2) | 13.4 nM | 17 nM | 10.9 nM |  |  | 
5 | AUCGUGCAGCUUUGCUGUACGAGUACAUGAGGAUCACCCAUGUAGGAUAUGGUACGCAAAGCGUGCUAGAAGGAUAUGAGAUUA [Mat - Exclusion NG 3 - Mod of JL - D96] (Eterna round: R96, puzzle: Exclusion NG 3) |  |  |  | 24.2 nM | 28.8 nM | 21.5 nM
6 | ACCUCACAUGAGGAUCACCCAUGUAAGGAUAUCUUCGCUUUGACGUUGCUCUAUGCGAAGAGAAGGUACACGGA [Xeteed] (Eterna round: R97, puzzle: Exclusion 1) |  |  |  | 84.8 nM | 20.6 nM | 
7 | AAAAUGUCAGGAUAUUGUUAGUUUAGUUGUUUGUAUUAGUUCGAGAAGGGACAUGAGGAUCACCCAUGUGAAAA [Ex4 #68] (Eterna round: R97, puzzle: Exclusion 4) |  |  |  | 42.5 nM | 35.8 nM | 
8 | CGUGCGUAUGUGAGGAUAUGCUGGUCCUUGGAUCAGCAGAAGGCACAUGAGGAUCACCCAUGUGGUGUCGUACG [salish99_Bmod_Ex4_018] (puzzle: Brourd's mod of Exclusion 4) | 18.7 nM | 182 nM | 395 nM |  |  | 
9 | AGUACAAUCACGAAAGUGAUUGUACAAUAAGCUUGUGAAACAUGAGGAUCACCCAUGUCCUCAUAAGCUCGUCUUAU [Mat - Sensor v2 -ver2- JL mod - D69] (Eterna round: R96, puzzle: Sensor v2, turn-off variant 2) |  |  |  | 16.1 nM | 18.4 nM | 416 nM
10 | AUCCUGCGAGGAUAUACAUAAUUUUUUUCGUUUUGACUCGAACAUGAGGAUCACCCAUGUAGAAGGUGCUUCAC [JR_Ex2_Sub027] (Eterna round: R97, puzzle: Exclusion 2) |  |  |  | 122 nM | 94.8 nM | 
11 | GCCUCACAUGAGGAUCACCCAUGUCAGGAUAUAGGAGACGGUAGCUUUGCUGCCAUCGCUAGAAGGGACUGGCU (puzzle: Exclusion 1) |  | 65.6 nM |  |  |  | 
12 | AGUAACUAUCACGAAAGUGAUAGUUACAACAGGUGAUAAACAUGAGGAUCACCCAUGUCCUCAUUUGCUCGUCUUAU [Sensor 3 - 11] (puzzle: Sensor v3, turn-off variant 2) | 984 nM | 422 nM | 527 nM |  |  | 
13 | AGCAUGCUAGGAUAUACGGGACAUUAGGGUUUGUCGUGUGGACAUGAGGAUCACCCAUGUAGAAGGAGCGUGCA [Mat - Exclusion 2 - Mod of Hyphema - D92] (puzzle: Exclusion 2) |  | 46.5 nM |  |  |  | 
14 | AAUACACAUGAGGAUCACCCAUGUCAGGAUAUGCGCAGACAGACAGACAGACAGACGAGCAGAAGGGAUAGGAA [Excls1-IV] (puzzle: Exclusion 1) | 54 nM | 67.5 nM | 49.3 nM |  |  | 
